Where a SMILES comes first, the peptide text is derived from it. Bridges are numbered along the chain shown (N, C = ends).
What was measured:
[1] = target: QS-13 peptide (…), minimal active sequence of Tetrastatin, the α4(IV) NC1 domain of collagen IV
[2] = target: QS-13 peptide (…), minimal active sequence of Tetrastatin, the α4(IV) NC1 domain of collagen IV; remark: listed apart in the source
cancer = conditions: ref Stoeltzing et al., 2003; Khalili et al., 2006; cited from earlier work
From the text: Peptides also emerged as important therapeutic agents in angiogenesis-dependent diseases due to their low toxicity and high specificity ([Rosca et al., 2011]).

cancer patients = system: cancer patients; parameters: method as in 3 sources, one per row (each row's own in cited_ref): ref Besse et al., 2013 ||| ref Cianfrocca et al., 2006 ||| ref Alday-Parejo et al., 2019; conditions: cited from earlier work
α5β1 integrin [3] = target: T1, α5β1 integrin (Homo sapiens, UniProt P05556+P08648); experiment: Surface plasmon resonance (Biacore T200); format: binding; conditions: biotinylated QS-13 (QKISRCQVCVKYSK-biot) captured on streptavidin CM5 chip; α5β1 integrin 0.12-130 nM; HBS pH 7.4, 3.4 mM EDTA, 0.05% P20, 25°C; Req fitted to 1:1 model
T1 construct: purchased R&D Systems 3230-A5-050
T1 sequence (P08648 42-894 limits assumed): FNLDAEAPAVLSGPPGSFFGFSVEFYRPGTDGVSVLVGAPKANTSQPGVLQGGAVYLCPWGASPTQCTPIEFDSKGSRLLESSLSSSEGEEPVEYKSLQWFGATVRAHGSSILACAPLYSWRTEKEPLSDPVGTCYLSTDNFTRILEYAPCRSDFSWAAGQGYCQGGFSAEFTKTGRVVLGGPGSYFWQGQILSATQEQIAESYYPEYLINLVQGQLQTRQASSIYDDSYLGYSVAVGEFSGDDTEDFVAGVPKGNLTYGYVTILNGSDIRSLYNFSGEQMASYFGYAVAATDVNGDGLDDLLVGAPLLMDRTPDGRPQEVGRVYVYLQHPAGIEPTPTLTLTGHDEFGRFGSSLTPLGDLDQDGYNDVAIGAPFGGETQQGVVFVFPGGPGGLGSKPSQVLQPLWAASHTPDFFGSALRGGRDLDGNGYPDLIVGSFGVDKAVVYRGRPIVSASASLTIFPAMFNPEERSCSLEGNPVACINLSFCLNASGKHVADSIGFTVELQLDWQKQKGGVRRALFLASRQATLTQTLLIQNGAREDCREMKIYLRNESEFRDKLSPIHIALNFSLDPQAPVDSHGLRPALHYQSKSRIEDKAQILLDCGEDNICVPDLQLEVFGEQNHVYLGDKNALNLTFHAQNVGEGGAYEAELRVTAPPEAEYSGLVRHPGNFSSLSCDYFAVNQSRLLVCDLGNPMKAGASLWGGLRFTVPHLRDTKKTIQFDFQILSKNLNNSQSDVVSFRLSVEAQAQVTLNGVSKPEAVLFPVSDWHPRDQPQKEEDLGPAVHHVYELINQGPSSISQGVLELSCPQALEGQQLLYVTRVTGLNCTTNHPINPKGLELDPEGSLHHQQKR
T1 sequence (P08648 895-995 partner limits assumed): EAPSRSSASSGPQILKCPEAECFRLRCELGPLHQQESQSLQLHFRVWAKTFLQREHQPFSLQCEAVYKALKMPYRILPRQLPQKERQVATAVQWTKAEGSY
T1 sequence (P05556 21-728 limits assumed): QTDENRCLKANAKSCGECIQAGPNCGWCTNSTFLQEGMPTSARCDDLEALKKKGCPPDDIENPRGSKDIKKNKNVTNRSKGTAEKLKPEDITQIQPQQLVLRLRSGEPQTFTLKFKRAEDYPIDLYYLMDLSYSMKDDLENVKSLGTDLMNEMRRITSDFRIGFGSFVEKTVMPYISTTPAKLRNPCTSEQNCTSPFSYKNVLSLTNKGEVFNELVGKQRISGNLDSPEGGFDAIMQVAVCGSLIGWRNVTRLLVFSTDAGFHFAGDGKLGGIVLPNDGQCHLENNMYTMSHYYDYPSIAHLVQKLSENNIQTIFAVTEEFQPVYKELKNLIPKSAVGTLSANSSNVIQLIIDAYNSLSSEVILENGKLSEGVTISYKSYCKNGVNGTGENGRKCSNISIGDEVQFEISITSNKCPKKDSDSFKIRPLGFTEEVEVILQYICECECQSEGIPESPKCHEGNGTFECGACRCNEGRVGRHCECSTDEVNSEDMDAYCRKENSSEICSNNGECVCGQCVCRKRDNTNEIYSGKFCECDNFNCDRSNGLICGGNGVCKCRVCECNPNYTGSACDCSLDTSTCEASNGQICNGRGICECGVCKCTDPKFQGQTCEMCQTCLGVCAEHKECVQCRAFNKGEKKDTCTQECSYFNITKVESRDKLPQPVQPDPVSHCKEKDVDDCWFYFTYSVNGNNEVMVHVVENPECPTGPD
Method: All experiments were performed on a Biacore T200 instrument (GE Healthcare) at 25°C. Sensor surfaces and other Biacore consumables were purchased from GE Healthcare. Integrin α5β1 was from R&D Systems. The running buffer, HEPES buffered saline (HBS, composed of 0.01 M HEPES, pH 7.4, 0.15 M NaCl, 3.4 mM EDTA) was filtered through a 0.22 μm membrane and supplemented with 0.05% P20. Biotinylated peptides were captured on streptavidin-coated sensor chips. Briefly, CM5 sensor chips (GE Healthcare) were preconditioned by duplicate injections of 10 mM HCl, 50 mM NaOH, each for 10 s, and water for 20 s. Before covalent immobilization of streptavidin, traces of biotinylated products that could remain in the flow system were neutralized by injecting a streptavidin solution (0.1 mg/mL in running buffer) for 5 min through all flow cells ([Baltzinger et al., 2013]). Streptavidin was then stably immobilized using standard amine-coupling methods. The flow rate was 10 μL/min. […] The equilibrium response (Req) was recorded 5 s before the end of integrin injection. The KD was determined by fitting the equilibrium response versus the [integrin] curve to a simple 1:1 interaction model with the Biacore T200 evaluation software (GE Healthcare).

[4] = system: angiogenesis, tumor growth and metastasis; parameters: method as in Almokadem and Belani, 2012; conditions: mice; ref Almokadem and Belani, 2012; cited from earlier work
HUVEC adhesion on QS-13 = HUVEC adhesion on QS-13 coating with effector preincubation; format: cell-based, Human; conditions: peptide 20 μg/mL (legend Figure 5), 30 min preincubation; adhesion 60 min; n = 8, p < 0.001
Method: Cells were detached with 50 mM Hepes, 125 mM NaCl, 5 mM KCl, and 1 mM EDTA, washed three times with ECGM, pre-incubated for 30 min with effectors [mouse anti-human α5β1, catalog number 555614 from BD Pharmingen (10 μg/mL), irrelevant IgG ([…])]. 10,000 cells were seeded per well of a 96 well-plate previously coated with QS-13 and saturated with 1% BSA. After 60 min, cells were washed three times with HEPES buffered Balanced Salt Solution, fixed with 1.1% glutaraldehyde solution and stained with 1% crystal violet solution. Staining was extracted with 10% acetic acid and absorbance was read at 560 nm.
For in vitro experiments, results are expressed as the mean ± SD and statistical significance were determined using Student’s t-test. For in vivo experiments, the non-parametric Mann–Whitney test was performed.

[5] = target: Biotinylated QS-13 (…-biot); experiment: SPR; Biacore T200, 25°C; biotinylated QS-13 captured on a streptavidin-coated CM5 chip; α5β1 integrin injected at 0.12-130 nM, 300 s; HBS (0.01 M HEPES pH 7.4, 0.15 M NaCl, 3.4 mM EDTA) with 0.05% P20; reference surface with an irrelevant biotinylated peptide; equilibrium response fitted to a 1:1 model
α5β1 integrin [6] = target: T1, α5β1 integrin; experiment: Solid phase assay, binding to coated integrin; conditions: coated 25 nM α5β1 integrin; biotinylated QS-13 90 min, room temperature, 1 mM MgCl2 and CaCl2; streptavidin-peroxidase/TMB 450 nm; n = 4, 2 experiments
Method: Wells of a 96-well plate were coated with 25 nM α5β1 integrin (3230-A5-050; R&D Systems, Lille, France) in amounts overnight at room temperature. The coating was then blocked with TBS containing 5% dry milk, 1 mM MgCl2, and 1 mM CaCl2 for 2 h at room temperature. After washing three times with washing buffer (0.1% dry milk, 1 mM MgCl2, and 1 mM CaCl2 in TBS), the plate was incubated for 90 min at room temperature with 100 μL per well of ranging from 1.25 to 20.10^–11 moles/well biotinylated-QS-13 diluted in washing buffer. After 3 washes, 100 μL of streptavidin-peroxidase diluted 1/20000 in washing buffer were added to each well and incubated for 15 min at room temperature. After 4 washes, 100 μL per well of tetramethylbenzidine (TMB), a peroxidase substrate, were added and incubated in the dark for 15 min. The enzymatic reaction was stopped by adding 50 μL per well of 0.5 M H2SO4. The intensity of the yellow coloration was measured at 450 nm with a Biochrom Asys UVM 340 microplate reader.

αvβ3 integrin = conditions: tumor cell surface; ref Pasco et al., 2000; Brassart-Pasco et al., 2012; Lambert et al., 2018; cited from earlier work
From the text: The NC1 domains of the different α(IV) collagen chains were reported to exert anti-tumor or anti-angiogenic effects ([Mundel and Kalluri, 2007]; [Monboisse et al., 2014]; [Brassart-Pasco et al., 2020]).

angiogenesis = conditions: ref Petitclerc et al., 2000; Wietecha et al., 2013; Monboisse et al., 2014; cited from earlier work
From the text: Basement membrane are composed of type IV collagen in association with other minor collagens, such as collagens XVIII or XIX, laminins, nidogens, and perlecan. Type IV collagen is composed of three α(IV) chains, out of six possible [α1(IV)-α6(IV)]. Each α(IV) chain comprises a 7S N-terminal domain, a long interrupted triple helical domain and a globular C-terminal non-collagenous (NC1) domain ([Wu and Ge, 2019]).

α5β1 integrin [7] = target: T1, α5β1 integrin; parameters: method as in Sudhakar et al., 2003; conditions: ref Sudhakar et al., 2003; cited from earlier work

α5β1 integrin of Human Umbilical Vein Endothelial Cells (HUVEC) (from UniProt P05556 21-798) (receptor)
HUVEC adhesion on coated QS-13 after pre-incubation of the cells with a blocking anti-α5β1 integrin antibody (10 μg/mL): inhibition of adhesion; an irrelevant IgG had no effect [1]: 71% | HUVEC adhesion on coated QS-13 after 30 min pre-incubation of the cells with RGDS peptide: change of adhesion [2]: -60%

Ac-PHSCN-NH(2) [ATN-161, reference compound]
preclinical anti-cancer activity (cancer): showed preclinical anti-cancer activities | clinical benefit (cancer patients; ref Cianfrocca et al., 2006): failed to provide therapeutic benefits

CC[C@H](C)[C@H](NC(=O)[C@H](CCCCN)NC(=O)[C@@H](N)CCC(N)=O)C(=O)N[C@@H](CO)C(=O)N[C@@H](CCCNC(=N)N)C(=O)N[C@H]1CSSC[C@@H](C(=O)N[C@H](C(=O)N[C@@H](CCCCN)C(=O)N[C@@H](Cc2ccc(O)cc2)C(=O)N[C@@H](CO)C(=O)O)C(C)C)NC(=O)[C@H](C(C)C)NC(=O)[C@H](CCC(N)=O)NC1=O [QS-13, QKISRCQVCVKYS] (H-QKISRCQVCVKYS-OH; disulfide 6-9)
Kd (α5β1 integrin [3]): 20.3 ± 7.5 nM

M200/volociximab: anti-α5β1 integrin antibody
effect on angiogenesis, tumor growth and metastasis [4]: inhibit angiogenesis and to suppress tumor growth and metastasis in mice | efficacy in advanced NSCLC (cancer patients; ref Besse et al., 2013): preliminary evidence of efficacy in advanced NSCLC

RGDS [RGDS peptide, RGDS peptide (Sigma)]
inhibition of HUVEC adhesion on QS-13 coating (peptide competition) (HUVEC adhesion on QS-13): about 60%

α5β1 integrin (recombinant, R&D Systems 3230-A5-050) (from UniProt P08648 42-1049; P05556 21-728) (receptor)
Kd [5]: 20.3 nM

QKISRCQVCVKYSK-biot (disulfide) [biotinylated-QS-13]
binding to α5β1 integrin (α5β1 integrin [6]): binds to α5β1 integrin in a ligand concentration dependent manner

B1: Tumstatin: the α3(IV) NC1 domain (protein, UniProt Q01955 1426-1670, looked up)
Tumstatin: PGLKGKRGDSGSPATWTTRGFVFTRHSQTTAIPSCPEGTVPLYSGFSFLFVQGNQRAHGQDLGTLGSCLQRFTTMPFLFCNVNDVCNFASRNDYSYWLSTPALMPMNMAPITGRALEPYISRCTVCEGPAIAIAVHSQTTDIPPCPHGWISLWKGFSFIMFTSAGSEGTGQALASPGSCLEEFRASPFLECHGRGTCNYYSNSYSFWLASLNPERMFRKPIPSTVKAGELEKIISRCQVCMKKRH
modifications: Tumstatin
notes: the α3(IV) NC1 domain
integrin mediating anti-tumor activity (αvβ3 integrin): mediated through binding to αvβ3 integrin | effect on angiogenesis (angiogenesis): inhibit angiogenesis

B2: Canstatin: the α2(IV) NC1 domain (protein, UniProt P08572 1486-1712, looked up)
Canstatin: VSIGYLLVKHSQTDQEPMCPVGMNKLWSGYSLLYFEGQEKAHNQDLGLAGSCLARFSTMPFLYCNPGDVCYYASRNDKSYWLSTTAPLPMMPVAEDEIKPYISRCSVCEAPAIAIAVHSQDVSIPHCPAGWRSLWIGYSFLMHTAAGDEGGGQSLVSPGSCLEDFRATPFIECNGGRGTCHYYANKYSFWLTTIPEQSFQGSPSADTLKAGLIRTHISRCQVCMKNL
modifications: Canstatin
notes: the α2(IV) NC1 domain
effect on angiogenesis (angiogenesis): inhibit angiogenesis

B3: Arresten: the α1(IV) NC1 domain (protein, UniProt P02462 1445-1669, looked up)
Arresten: GFLVTRHSQTIDDPQCPSGTKILYHGYSLLYVQGNERAHGQDLGTAGSCLRKFSTMPFLFCNINNVCNFASRNDYSYWLSTPEPMPMSMAPITGENIRPFISRCAVCEAPAMVMAVHSQTIQIPPCPSGWSSLWIGYSFVMHTSAGAEGSGQALASPGSCLEEFRSAPFIECHGRGTCNYYANAYSFWLATIERSEMFKKPTPSTLKAGELRTHVSRCQVCMRRT
modifications: Arresten
notes: the α1(IV) NC1 domain
effect on angiogenesis (angiogenesis): inhibit angiogenesis

B4: endostatin: 20-kDa C-terminal fragment of type XVIII collagen (protein, UniProt P39060 1572-1754, looked up)
Endostatin: HSHRDFQPVLHLVALNSPLSGGMRGIRGADFQCFQQARAVGLAGTFRAFLSSRLQDLYSIVRRADRAAVPIVNLKDELLFPSWEALFSGSEGPLKPGARIFSFDGKDVLRHPTWPQKSVWHGSDPNGRRLTESYCETWRTEAPSATGQASSLLGGRLLGQSAASCHHAYIVLCIENSFMTASK
modifications: Endostatin
notes: 20-kDa C-terminal fragment of type XVIII collagen
clinical results with chemotherapies and radiotherapies (cancer patients; combination, ref Alday-Parejo et al., 2019): the results were inconsistent | effect on α5β1 integrin (α5β1 integrin [7]): inhibit α5β1 integrin

From paper PMC7431705, “Angiogenesis Inhibition by a Short 13 Amino Acid Peptide Sequence of Tetrastatin, the α4(IV) NC1 Domain of Collagen IV” (Frontiers in Cell and Developmental Biology, 2020)
